In the supplement of paper PMC7125110:
± gives the standard error. Fewer inactive variants are shown than the library holds.

B1: glmS ribozyme (parent)
chain: AUAAAAGCGCCAGAACUACAGAAAUGUAGUUGACGAGGAGGAGGUUUAUCGAAUUUUCGGCGGAUGCCUCCAAA

Legend:
Settings in all cases: with glucosamine-6-phosphate
glucosamine-6-phosphate [1] = variants of: B1; test: self-cleavage kobs at 40 uM GlcN6P; higher = faster cleavage; RNA array
In short: (§1)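 In situ transcription by E. coli RNA polymerase produced barcoded ribozyme variants on sequenced MiSeq chips, and a hybridised Cy3 probe tracked them at 37 °C. Glucosamine-6-phosphate was flowed in at 40 μM to 10 mM in HEPES/KCl/Mg(OAc)2 buffer. kcat and KM were taken from weighted Michaelis–Menten fits of kobs values from exponential decay fits.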

glucosamine-6-phosphate [2] = variants of: B1; test: self-cleavage kobs at 160 uM GlcN6P; higher = faster cleavage; RNA array
In short: as §1

glucosamine-6-phosphate [3] = variants of: B1; test: self-cleavage kobs at 640 uM GlcN6P; higher = faster cleavage; RNA array
In short: as §1

glucosamine-6-phosphate [4] = variants of: B1; test: self-cleavage kobs at 2500 uM GlcN6P; higher = faster cleavage; RNA array
In short: as §1

glucosamine-6-phosphate [5] = variants of: B1; test: self-cleavage kobs at 10000 uM GlcN6P; higher = faster cleavage; RNA array
In short: as §1

AUAAAAGCGCCAGAACUACAGAAAUGUAGGUGACGGGGAGGAGGUUUAUCGAAUUUUCGGCGGAUGCCUCCAAA
self-cleavage kobs at 40 uM GlcN6P (glucosamine-6-phosphate [1]): < 1e-05 s⁻¹ | self-cleavage kobs at 160 uM GlcN6P (glucosamine-6-phosphate [2]): < 1e-05 s⁻¹ | self-cleavage kobs at 640 uM GlcN6P (glucosamine-6-phosphate [3]): < 1e-05 s⁻¹ | self-cleavage kobs at 2500 uM GlcN6P (glucosamine-6-phosphate [4]): < 1e-05 s⁻¹ | self-cleavage kobs at 10000 uM GlcN6P (glucosamine-6-phosphate [5]): < 1e-05 s⁻¹

AUAAAAGCGCCAGAACUACAGAAAUGUAGAUGACGAGGAGGAGGUUUAUGGAAUUUUCGGCGGAUGCCUCCAAA
self-cleavage kobs at 40 uM GlcN6P (glucosamine-6-phosphate [1]): 3.17e-05 ± 1.5e-05 s⁻¹ | self-cleavage kobs at 160 uM GlcN6P (glucosamine-6-phosphate [2]): 6.28e-05 ± 1.6e-05 s⁻¹ | self-cleavage kobs at 640 uM GlcN6P (glucosamine-6-phosphate [3]): 0.00128 ± 0.0005 s⁻¹ | self-cleavage kobs at 2500 uM GlcN6P (glucosamine-6-phosphate [4]): 6.93e-05 ± 1.6e-05 s⁻¹

AUAAAAGCGCCAGAACUACAGAAAUGUAGGUGACGAGGAGGGGGUUUAUCGAAUGUUCGGCGGAUGCCUCCAAA
self-cleavage kobs at 40 uM GlcN6P (glucosamine-6-phosphate [1]): 0.000185 ± 4.5e-05 s⁻¹ | self-cleavage kobs at 2500 uM GlcN6P (glucosamine-6-phosphate [4]): 0.0026 ± 0.00051 s⁻¹ | self-cleavage kobs at 10000 uM GlcN6P (glucosamine-6-phosphate [5]): 0.00677 ± 0.0014 s⁻¹

AUAAAAGCGCCAGAACUACAGAAAUGUAGAUGACGAGGAGGAGGUUUAUCGAAUUUUGGGCGGACGCCUCCAAA
self-cleavage kobs at 40 uM GlcN6P (glucosamine-6-phosphate [1]): < 1e-05 s⁻¹

AUAAAAGCGCCAGAACUACAGAAAUGUAGAUGACGAGGAGGAGGUUUAUCUAAAUUUCGGCGGAUGCCUCCAAA
self-cleavage kobs at 40 uM GlcN6P (glucosamine-6-phosphate [1]): < 1e-05 s⁻¹ | self-cleavage kobs at 10000 uM GlcN6P (glucosamine-6-phosphate [5]): < 1e-05 s⁻¹

AUAAAAGCGCCAGAACUACAGAAAUGUAGAUGACGAGGAGGAGGUUUAUCGAAUAUUCGGAGGAUGCCUCCAAA
self-cleavage kobs at 40 uM GlcN6P (glucosamine-6-phosphate [1]): < 1e-05 s⁻¹ | self-cleavage kobs at 2500 uM GlcN6P (glucosamine-6-phosphate [4]): < 1e-05 s⁻¹

AUAAAAGCGCCAGAACUACAGAAAUGUAGAUGACGAGGAGGAGGUUUAUCGAAUUUUCAGCGAAUGCCUCCAAA
self-cleavage kobs at 40 uM GlcN6P (glucosamine-6-phosphate [1]): < 1e-05 s⁻¹

AUAAAAGCGCCAGAACUACAGAAAUGUAGCUGACGAGGCGUAGGUUUAUCGAAUUUUCGGCGGAUGCCUCCAAA
self-cleavage kobs at 40 uM GlcN6P (glucosamine-6-phosphate [1]): < 1e-05 s⁻¹ | self-cleavage kobs at 10000 uM GlcN6P (glucosamine-6-phosphate [5]): < 1e-05 s⁻¹

AUAAAAGCGCCAGAACUACAGAAAUGUAGCUGACGAGGAGGAAGUUUAUCGAAUUUUCGGCGGAUGCCUCCAAA
self-cleavage kobs at 40 uM GlcN6P (glucosamine-6-phosphate [1]): < 1e-05 s⁻¹ | self-cleavage kobs at 160 uM GlcN6P (glucosamine-6-phosphate [2]): < 1e-05 s⁻¹ | self-cleavage kobs at 2500 uM GlcN6P (glucosamine-6-phosphate [4]): < 1e-05 s⁻¹ | self-cleavage kobs at 10000 uM GlcN6P (glucosamine-6-phosphate [5]): < 1e-05 s⁻¹

AUAAAAGCGCCAGAACUACAGAAAUGUAGAUGACGAGGAGGAGGUUUAUCGAAGUUUCGGCGGAUGCCUCCAAA
self-cleavage kobs at 40 uM GlcN6P (glucosamine-6-phosphate [1]): 0.000119 ± 2.1e-05 s⁻¹ | self-cleavage kobs at 10000 uM GlcN6P (glucosamine-6-phosphate [5]): 0.00479 ± 0.00078 s⁻¹

AUAAAAGCGCCAGAACUACAGAAAUGUAGAUGACAAGGAGGAGGUUUAUCGAAUUUUCGGCGGAUGCCUCCAAA
self-cleavage kobs at 40 uM GlcN6P (glucosamine-6-phosphate [1]): < 1e-05 s⁻¹ | self-cleavage kobs at 160 uM GlcN6P (glucosamine-6-phosphate [2]): < 1e-05 s⁻¹ | self-cleavage kobs at 640 uM GlcN6P (glucosamine-6-phosphate [3]): < 1e-05 s⁻¹ | self-cleavage kobs at 2500 uM GlcN6P (glucosamine-6-phosphate [4]): < 1e-05 s⁻¹ | self-cleavage kobs at 10000 uM GlcN6P (glucosamine-6-phosphate [5]): < 1e-05 s⁻¹

AUAAAAGCGCCAGAACUACAGAAAUGUAGCUGACGAGGAGGAGGUUUAUCGAAUAUGCGGCGGAUGCCUCCAAA
self-cleavage kobs at 40 uM GlcN6P (glucosamine-6-phosphate [1]): < 1e-05 s⁻¹

AUAAAAGCGCCAGAACUACAGAAAUGUAGAUGACGAGGUGGAGGUUUAUCGAAUUUUCGGCGUAUGCCUCCAAA
self-cleavage kobs at 40 uM GlcN6P (glucosamine-6-phosphate [1]): < 1e-05 s⁻¹ | self-cleavage kobs at 640 uM GlcN6P (glucosamine-6-phosphate [3]): < 1e-05 s⁻¹ | self-cleavage kobs at 2500 uM GlcN6P (glucosamine-6-phosphate [4]): < 1e-05 s⁻¹

AUAAAAGCGCCAGAACUACAGAAAUGUAGGUGUCGAGGAGGAGGUUUAUCGAAUUUUCGACGGAUGCCUCCAAA
self-cleavage kobs at 40 uM GlcN6P (glucosamine-6-phosphate [1]): < 1e-05 s⁻¹ | self-cleavage kobs at 640 uM GlcN6P (glucosamine-6-phosphate [3]): < 1e-05 s⁻¹ | self-cleavage kobs at 2500 uM GlcN6P (glucosamine-6-phosphate [4]): < 1e-05 s⁻¹

AUAAAAGCGCCAGAACUACAGAAAUGUAGCUGACGAGGAGGAGGUUUAUCGUAUUUUCGGCGGAUGCCUCCAAA
self-cleavage kobs at 40 uM GlcN6P (glucosamine-6-phosphate [1]): < 1e-05 s⁻¹ | self-cleavage kobs at 640 uM GlcN6P (glucosamine-6-phosphate [3]): < 1e-05 s⁻¹

AUAAAAGCGCCAGAACUACAGAAAUGUAGAUGACGAGGAGGAGGUUUAUCGAAUUCUCGGCGGGUGCCUCCAAA
self-cleavage kobs at 40 uM GlcN6P (glucosamine-6-phosphate [1]): < 1e-05 s⁻¹ | self-cleavage kobs at 10000 uM GlcN6P (glucosamine-6-phosphate [5]): 2.96e-05 ± 1.4e-05 s⁻¹

AUAAAAGCGCCAGAACUACAGAAAUGUAGAUGACAAGGAGGAGGUUUAUCAAAUUUUCGUCGGAUGCCUCCAAA
self-cleavage kobs at 40 uM GlcN6P (glucosamine-6-phosphate [1]): < 1e-05 s⁻¹ | self-cleavage kobs at 10000 uM GlcN6P (glucosamine-6-phosphate [5]): < 1e-05 s⁻¹

AUAAAAGCGCCAGAACUACAGAAAUGUAGCUGACGAGGAGGAGGUUUAUCGAAUUUUCGGCGGAUGCCGCCAAA
self-cleavage kobs at 40 uM GlcN6P (glucosamine-6-phosphate [1]): 3.65e-05 ± 1.2e-05 s⁻¹ | self-cleavage kobs at 160 uM GlcN6P (glucosamine-6-phosphate [2]): 7.31e-05 ± 1.5e-05 s⁻¹ | self-cleavage kobs at 640 uM GlcN6P (glucosamine-6-phosphate [3]): 0.000119 ± 2.8e-05 s⁻¹ | self-cleavage kobs at 2500 uM GlcN6P (glucosamine-6-phosphate [4]): 5.46e-05 ± 1.1e-05 s⁻¹ | self-cleavage kobs at 10000 uM GlcN6P (glucosamine-6-phosphate [5]): 2.39e-05 ± 1.1e-05 s⁻¹

AUAAAAGCGCCAGAACUACAGAAAUGUAGCUGACGAGGAGGAGGGUUAUCGAAUUUUCGGCGGAUGCCUCCAAA
self-cleavage kobs at 40 uM GlcN6P (glucosamine-6-phosphate [1]): < 1e-05 s⁻¹ | self-cleavage kobs at 160 uM GlcN6P (glucosamine-6-phosphate [2]): < 1e-05 s⁻¹

AUAAAAGCGCCAGAACUACAGAAAUGUAGAUGACGAGGAGGUGGUUUAUCGAAUCUUCGGCGGAUGCCUCCAAA
self-cleavage kobs at 40 uM GlcN6P (glucosamine-6-phosphate [1]): < 1e-05 s⁻¹

AUAAAAGCGCCAGAACUACAGAAAUGUAGAUGACGAGGAGGAGGUUUAUCGAAUUUUCGGCGGAUCCCUGCAAA
self-cleavage kobs at 40 uM GlcN6P (glucosamine-6-phosphate [1]): < 1e-05 s⁻¹

AUAAAAGCGCCAGAACUACAGAAAUGUAGAAGACGAGGAGGAGGUUUAUCGAAUUUUCGGCGGAUGCCUCCAAA
self-cleavage kobs at 40 uM GlcN6P (glucosamine-6-phosphate [1]): 0.000419 ± 7.6e-05 s⁻¹ | self-cleavage kobs at 160 uM GlcN6P (glucosamine-6-phosphate [2]): 0.00152 ± 0.00033 s⁻¹ | self-cleavage kobs at 640 uM GlcN6P (glucosamine-6-phosphate [3]): 0.00269 ± 0.00057 s⁻¹ | self-cleavage kobs at 2500 uM GlcN6P (glucosamine-6-phosphate [4]): 0.0075 ± 0.0013 s⁻¹ | self-cleavage kobs at 10000 uM GlcN6P (glucosamine-6-phosphate [5]): 0.0264 ± 0.0056 s⁻¹

AUAAAAGCGCCAGAACUACAGAAAUGUAGAUGACGAGGAGGAGGUUUAUCGAAUUUUCGGCGGAUGCAUCCAAA
self-cleavage kobs at 40 uM GlcN6P (glucosamine-6-phosphate [1]): < 1e-05 s⁻¹

AUAAAAGCGCCAGAACUACAGAAAUGUAGAUGACGAGGAGGAGAUUUAUCGAAUUUUCGGCGGAUGCCUCCAAA
self-cleavage kobs at 40 uM GlcN6P (glucosamine-6-phosphate [1]): < 1e-05 s⁻¹ | self-cleavage kobs at 160 uM GlcN6P (glucosamine-6-phosphate [2]): < 1e-05 s⁻¹ | self-cleavage kobs at 10000 uM GlcN6P (glucosamine-6-phosphate [5]): 4.03e-05 ± 8.7e-06 s⁻¹

AUAAAAGCGCCAGAACUACAGAAAUGUAGAUGACGAGGAGGAGGUUUAUCGUAAUUUCGGCGGAUGCCUCAAAA
self-cleavage kobs at 40 uM GlcN6P (glucosamine-6-phosphate [1]): < 1e-05 s⁻¹

AUAAAAGCGCCAGAACUACAGAAAUGUAGCUGACGAGGAGGAGGUUUCUCGAAUUUUCGGCGGAUGCCUCCAAA
self-cleavage kobs at 40 uM GlcN6P (glucosamine-6-phosphate [1]): < 1e-05 s⁻¹ | self-cleavage kobs at 160 uM GlcN6P (glucosamine-6-phosphate [2]): < 1e-05 s⁻¹ | self-cleavage kobs at 640 uM GlcN6P (glucosamine-6-phosphate [3]): < 1e-05 s⁻¹ | self-cleavage kobs at 2500 uM GlcN6P (glucosamine-6-phosphate [4]): < 1e-05 s⁻¹ | self-cleavage kobs at 10000 uM GlcN6P (glucosamine-6-phosphate [5]): < 1e-05 s⁻¹

AUAAAAGCGCCAGAACUACAGAAAUGUAGAUGAUGAGGAGGAGGUUUAUCGAAUUUUCGGCGGAUGCGUCCAAA
self-cleavage kobs at 40 uM GlcN6P (glucosamine-6-phosphate [1]): 0.000169 ± 6.6e-05 s⁻¹ | self-cleavage kobs at 640 uM GlcN6P (glucosamine-6-phosphate [3]): 0.000629 ± 0.00024 s⁻¹ | self-cleavage kobs at 10000 uM GlcN6P (glucosamine-6-phosphate [5]): 0.000202 ± 6.3e-05 s⁻¹

AUAAAAGCGCCAGAACUACAGAAAUGUAGCUGACGAGGAAGAGGUUUAUCGGAUCUUCGGGGGAUGCCUCCAAA
self-cleavage kobs at 40 uM GlcN6P (glucosamine-6-phosphate [1]): < 1e-05 s⁻¹ | self-cleavage kobs at 10000 uM GlcN6P (glucosamine-6-phosphate [5]): < 1e-05 s⁻¹

AUAAAAGCGCCAGAACUACAGAAAUGUAGCUCACGAGGAGGAGUUUUAUUGAAUUUUCGGCGGAUGCCUCCAAA
self-cleavage kobs at 40 uM GlcN6P (glucosamine-6-phosphate [1]): < 1e-05 s⁻¹ | self-cleavage kobs at 10000 uM GlcN6P (glucosamine-6-phosphate [5]): < 1e-05 s⁻¹
